Data on one molecule can be found in patent US20240207462A1 (ABDERA THERAPEUTICS, published 2024).

The test deals with T1, human DLL3.FLAG (Adipogen #AG-40B-0151, amino acid 27-466) (human, UniProt Q9NYJ7 27-466).
T1 construct: range 27-466; The ELISA used human DLL3.FLAG or human DLL3.HIS (abcam #ab255797, amino acid 27-492); not shown: FLAG tag
T1 sequence (looked up): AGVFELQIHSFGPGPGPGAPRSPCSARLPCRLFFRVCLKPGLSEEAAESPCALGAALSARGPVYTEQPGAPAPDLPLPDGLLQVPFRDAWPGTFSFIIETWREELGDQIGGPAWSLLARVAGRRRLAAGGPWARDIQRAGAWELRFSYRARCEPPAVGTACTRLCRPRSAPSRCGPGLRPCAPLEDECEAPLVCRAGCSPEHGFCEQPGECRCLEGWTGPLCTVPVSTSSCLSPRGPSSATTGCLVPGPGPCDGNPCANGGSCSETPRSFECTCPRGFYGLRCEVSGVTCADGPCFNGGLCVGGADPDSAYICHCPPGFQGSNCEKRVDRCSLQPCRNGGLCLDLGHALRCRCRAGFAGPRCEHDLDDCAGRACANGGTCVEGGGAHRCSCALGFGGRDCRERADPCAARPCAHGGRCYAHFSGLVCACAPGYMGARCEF
As to the kind of experiment: ELISA, plate coated with hDLL3-Flag, goat anti-human IgG Fc-HRP, TMB, A450. (In general: In an ELISA, binding on a coated surface is turned into a signal by an enzyme label.)

B1: Rovalpituzumab (Creative Biolabs #TAB-216CL) (antibody, V domains shown)
VH: QVQLVQSGAEVKKPGASVKVSCKASGYTFTNYGMNWVRQAPGQGLEWMGWINTYTGEPTYADDFKGRVTMTTDTSTSTAYMELRSLRSDDTAVYYCARIGDSSPSDYWGQGTLVTVSS
VL: EIVMTQSPATLSVSPGERATLSCKASQSVSNDVVWYQQKPGQAPRLLIYYASNRYTGIPARFSGSGSGTEFTLTISSLQSEDFAVYYCQQDYTSPWTFGQGTKLEIK
For orientation: EC50 (read off the curve) means the concentration giving half of the maximal effect. High values mean lower potency in that assay, low ones higher potency in that assay. With B1, the half-maximal effective concentration (EC50 (read off the curve)) was approximately 0.08 nM.
